The results in this text go back to patent US20200392251A1.

In test [1] the target is human β-secretase 1 (BACE1), extracellular/catalytic domain (human) (UniProt P56817). As to the kind of experiment: FRET peptide inhibition assay; KI=IC50/(S/Km+1).
For test [2] the target is unchanged. The test is described as follows: biolayer interferometry; biotinylated protease on streptavidin sensor, Fab in solution. (In general: In BLI a coated tip is dipped into the sample, and binding shifts an interference pattern.)
Test [3] shares this target. As to the kind of experiment: enzyme inhibition assay with FRET peptide substrate (M-2420), Fab titrated on BACE1 [panel B1A4].
The target is the same in test [4]. The test is described as follows: bio-layer interferometry (ForteBio), biotinylated protease on streptavidin biosensor, Fab in solution [panel B1A4].
Test [5] has the same target. As to the kind of experiment: biolayer interferometry; IgG on protein A sensor, protease in solution.
The target is the same in test [6]. The test is described as follows: enzyme inhibition assay with FRET peptide substrate, IgG titrated on BACE1 [panel A].
Test [7] has as its target catalytic domain of MMP-9 (cdMMP-9) (UniProt P14780). The test is described as follows: bio-layer interferometry.
Test [8] shares this target. The test is described as follows: FRET peptide inhibition assay.
The target is the same in test [9]. As to the kind of experiment: bio-layer interferometry; reference cdMMP-12 wt.
Test [10] has the same target. As to the kind of experiment: FRET peptide inhibition assay; reference cdMMP-12 mutant D4.
Test [11] concerns the target human β-secretase 1 (BACE1), extracellular/catalytic domain (human) (UniProt P56817). The test is described as follows: enzyme inhibition assay with FRET peptide substrate (M-2420), Fab titrated on BACE1 [panel B1B3].
Test [12] has the same target. The test is described as follows: bio-layer interferometry (ForteBio), biotinylated protease on streptavidin biosensor, Fab in solution [panel B1B3].
The target is the same in test [13]. The test is described as follows: enzyme inhibition assay with FRET peptide substrate (M-2420), Fab titrated on BACE1 [panel B2B5].
Test [14] has the same target. The test is described as follows: bio-layer interferometry (ForteBio), biotinylated protease on streptavidin biosensor, Fab in solution [panel B2B5].
For test [15] the target is unchanged. As to the kind of experiment: enzyme inhibition assay with FRET peptide substrate (M-2420), Fab titrated on BACE1 [panel B2B2].
Test [16] shares this target. The test is described as follows: bio-layer interferometry (ForteBio), biotinylated protease on streptavidin biosensor, Fab in solution [panel B2B2].
The target is the same in test [17]. The test is described as follows: enzyme inhibition assay with FRET peptide substrate (M-2420), Fab titrated on BACE1 [panel B2B3].
For test [18] the target is unchanged. The test is described as follows: bio-layer interferometry (ForteBio), biotinylated protease on streptavidin biosensor, Fab in solution [panel B2B3].

human β-secretase 1 (BACE1), extracellular/catalytic domain (human), sequence (P56817 46-457 limits assumed, form in doubt): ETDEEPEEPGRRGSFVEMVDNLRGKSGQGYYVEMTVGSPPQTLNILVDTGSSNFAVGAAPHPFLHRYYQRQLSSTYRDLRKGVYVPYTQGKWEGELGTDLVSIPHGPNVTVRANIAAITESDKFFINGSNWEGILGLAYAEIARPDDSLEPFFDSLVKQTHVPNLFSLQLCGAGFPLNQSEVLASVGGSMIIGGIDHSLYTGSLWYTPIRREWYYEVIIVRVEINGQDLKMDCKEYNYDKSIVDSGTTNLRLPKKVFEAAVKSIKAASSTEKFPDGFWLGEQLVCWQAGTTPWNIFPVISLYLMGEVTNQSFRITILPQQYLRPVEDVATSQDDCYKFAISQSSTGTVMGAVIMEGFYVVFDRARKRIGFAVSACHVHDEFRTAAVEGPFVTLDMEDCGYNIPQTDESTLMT

B1: anti-BACE1 Fab B1A4 (Fab, V domains shown)
VH: EVQLVESGGGLVQPGGSLRLSCAASGFNISYSSIHWVRQAPGKGLEWVAYISPSSSYTSYADSVKGRFTISADTSKNTAYLQMNSLRAEDTAVYYCARHYYVSVGSGIDYWGQGTLVTVSS
VL: DIQMTQSPSSLSASVGDRVTITCRASQSVSSAVAWYQQKPGKAPKLLIYSASSLYSGVPSRFSGSRSGTDFTPTISSLQPEDFATYYCQQASASPYALITFGQGTKVEIKR
Take B1: in [1], the inhibition constant Ki (commonly the equilibrium dissociation constant of an inhibitor or competing ligand from its target) was 0.041 µM. Moreover, the Kd (as a rule, the constant that tells how readily two partners part at equilibrium) in test [2] came out at 0.021 µM. Also, the IC50 (commonly the concentration needed to halve the response being measured) in [3] was determined as 0.052 µM. Besides, in test [4], the off-rate constant (koff) (in general, the first-order rate constant of dissociation) came to 0.0086 s⁻¹ and the kon (in general, the rate constant with which the complex forms) was determined as 420000 M⁻¹ s⁻¹.

B2: anti-BACE1 IgG B1A4 (antibody, V domains shown)
VH: EVQLVESGGGLVQPGGSLRLSCAASGFNISYSSIHWVRQAPGKGLEWVAYISPSSSYTSYADSVKGRFTISADTSKNTAYLQMNSLRAEDTAVYYCARHYYVSVGSGIDYWGQGTLVTVSS
VL: DIQMTQSPSSLSASVGDRVTITCRASQSVSSAVAWYQQKPGKAPKLLIYSASSLYSGVPSRFSGSRSGTDFTPTISSLQPEDFATYYCQQASASPYALITFGQGTKVEIKR
Turning to B2, the Ki in test [1] was 0.035 µM. Moreover, in test [5], the Kd is 0.016 µM. The molecule further came in with an IC50 in test [6] of 0.045 µM.

B3: anti-MMP-12 Fab LH6 (Fab, V domains shown)
VH: EVQLVESGGGLVQPGGSLRLSCAASGFNLSYSYMHWVRQAPGKGLEWVASIYPSYGSTYYADSVKGRFTISADTSKNTAYLQMNSLRAEDTAVYYCARDLEESLPKRARTAVSKELESVPYVMDYWGQGTLVTVSS
VL: DIQMTQSPSSLSASVGDRVTITCRASQSVSSAVAWYQQKPGKAPKLLIYSASSLYSGVPSRFSGSRSGTDFTLTISSLQPEDFATYYCQQSSHYASPPITFGQGTKVEIKR
In the case of B3, in test [7], the Kd came out at 0.95 µM. The molecule further displayed an inhibitory constant (Ki) in [8] of 1.5 µM. In [9], this molecule had a fold (KD compared with cdMMP-12 wt) of 2.2 fold. This molecule had a fold (KI compared with cdMMP-12 mutant D4) in test [10] of 16 fold.

B4: anti-BACE1 Fab B1B3 (Fab, V domains shown)
VH: EVQLVESGGGLVQPGGSLRLSCAASGFNISYYSMHWVRQAPGKGLEWVASISPYYGSTYYADSVKGRFTISADTSKNTAYLQMNSLRAEDTAVYYCARERSSCPVGWRDSRFGADGYGLEYWGQGTLVTVSS
VL: DIQMTQSPSSLSASVGDRVTITCRASQSVSSAVAWYQQKPGKAPKLLIYSASSLYSGVPSRFSGSRSGTDFTLTISSLQPEDFATYYCQQSGHYHSLITFGQGTKVEIKR
With B4, the Ki in [1] came out at 0.21 µM. In test [2], this molecule displayed a dissociation constant Kd of 0.031 µM. For the same molecule, the IC50 in [11] turned out to be 0.27 µM. In test [12], the koff was found to be 0.013 s⁻¹ and the kon stood at 410000 M⁻¹ s⁻¹.

B5: anti-BACE1 Fab B2B5 (Fab, V domains shown)
VH: EVQLVESGGGLVQPGGSLRLSCAASGFNIYYSYMHWVRQAPGKGLEWVASIYPYYGSTYYADSVKGRFTISADTSKNTAYLQMNSLRAEDTAVYYCARWHGYPPGYSYYSSFSSSGFDYWGQGTLVTVSS
VL: DIQMTQSPSSLSASVGDRVTITCRASQSVSSAVAWYQQKPGKAPKLLIYSASSLYSGVPSRFSGSRSGTDFTPTISSLQPEDFATYYCQQSYFSYPITFGQGTKVEIKR
With B5, the Ki in test [1] worked out at 0.077 µM. The molecule further came in with a Kd in test [2] of 0.13 µM. This molecule also showed a half-inhibitory concentration (IC50) in [13] of 0.097 µM. In test [14], this molecule registered a koff of 0.024 s⁻¹ and an on-rate constant (kon) of 180000 M⁻¹ s⁻¹.

B6: anti-MMP-12 Fab LH11 (Fab, V domains shown)
VH: EVQLVESGGGLVQPGGSLRLSCAASGFNLSYYSMHWVRQAPGKGLEWVAYIYPYYGSTYYADSVKGRFTISADTSKNTAYLQMNSLRAEDTAVYYCARFLLSIGKLFVGDGSILHVWL
VL: DIQMTQSPSSLSASVGDRVTITCRASQSVSSAVAWYQQKPGKAPKLLIYSASSLYSGVPSRFSGSRSGTDFTLTISSLQPEDFATYYCQQAYYGYLFTFGQGTKVEIKR
Turning to B6, in test [7], the Kd was 0.74 µM. In test [8], this molecule came in with a Ki of 6.2 µM. The molecule further gave a fold (KD compared with cdMMP-12 wt) in test [9] of 9.9 fold. Also, the fold (KI compared with cdMMP-12 mutant D4) in [10] worked out at 83 fold.

B7: anti-BACE1 Fab B2B2 (Fab, V domains shown)
VH: EVQLVESGGGLVQPGGSLRLSCAASGFNISSYYMHWVRQAPGKGLEWVASIYSSYGYTYYADSVKGRFTISADTSKNTAYLQMNSLRAEDTAVYYCARYWGYYAWFGSHPWAYGAFDYWGQGTLVTVSS
VL: DIQMTQSPSSLSASVGDRVTITCRASQSVSSAVAWYQQKPGKAPKLLIYSASSLYSGVPSRFSGSRSGTDFTLTISSLQPEDFATYYCQQYGYYLITFGQGTKVEIKR
As to B7, the Ki in test [1] was found to be 0.087 µM. The Kd in test [2] was 0.052 µM. The same molecule registered an IC50 in [15] of 0.11 µM. In test [16], this molecule came in with a koff of 0.0091 s⁻¹ and a kon of 180000 M⁻¹ s⁻¹.

B8: anti-BACE1 Fab B2B3 (Fab, V domains shown)
VH: EVQLVESGGGLVQPGGSLRLSCAASGFNISYSSIHWVRQAPGKGLEWVAYISSYSSSTYYADSVKGRFTISADTSKNTAYLQMNSLRAEDTAVYYCARSASGIDYWGQGTLVTVSS
VL: DIQMTQSPSSLSASVGDRVTITCRASQSVSSAVAWYQQKPGKAPKLLIYSASSLYSGVPSRFSGSRSGTDFTLTISSLQPEDFATYYCQQSGYAPFTFGQGTKVEIKR
B8 had a Ki in test [1] of 0.1 µM. The molecule further showed a Kd in test [2] of 0.1 µM. Further, in test [17], the IC50 came out at 0.13 µM. In test [18], this molecule returned a koff of 0.0097 s⁻¹ and a kon of 93000 M⁻¹ s⁻¹.

B9: anti-MMP-12 Fab LG4 (Fab, V domains shown)
VH: EVQLVESGGGLVQPGGSLRLSCAASGFNLYYSYMHWVRQAPGKGLEWVASISSYYGYTSYADSVKGRFTISADTSKNTAYLQMNSLRAEDTAVYYCARSPIVYYELFMFIDMGAQGWKYGMDYWGQGTLVTVSS
VL: DIQMTQSPSSLSASVGDRVTITCRASQSVSSAVAWYQQKPGKAPKLLIYSASSLYSGVPSRFSGSRSGTDFTLTISSLQPEDFATYYCQQTFYPFTFGQGTKVEIKR
Molecule B9 displayed a Kd in test [7] of 0.72 µM. Also, the fold (KD compared with cdMMP-12 wt) in [9] came to 10 fold.
